We go through one substance from patent US20140294834A1.

One may read the Kd as the constant that tells how readily two partners part at equilibrium. A high value points to lower affinity.

This assay deals with his tagged cMET (UniProt P08581). Put plainly: BLI (Fortebio Octet), antibody loaded on Protein A tips, his tagged cMET in solution, 1:1 fit. For orientation: BLI is a label-free optical method that tracks binding on a fibre tip over time.

The substance Onartuzumab (antibody) gave a Kd of 1.2 nM. This lies in the single-digit nanomolar range.
